Test results published in US20240074473A1, “METHOD FOR INDUCING HYPERTROPHIC MUSCLE FIBERS FOR INDUSTRIAL MEAT PRODUCTION” (Yeda Research and Development Co. Ltd., priority 2021, published 2024).

Tests used:
[1] = Risk categorization of cell culture media ingredients
Source text: Category 1: These cell culture media components are food ingredients/additives that are GRAS or permitted by federal regulation without limitation on use. Exemplary compounds in this category include innocuous ingredients such as sugars, pH buffers, water soluble vitamins, and common antioxidants such as tocopherols.
Category 2: These cell culture media components are common dietary nutrients and are anticipated to have GRAS status for food use or be permitted by regulation for addition to food. Examples of such compounds include most of the inorganic salts and macronutrients that are present within the cell culture media. […] Majority of nutrients present within the poultry cell-based meat may be readily measured using common validated methods for food composition testing. […]
For example, situations where the compound is not detectable in finished product or is present at equivalent levels in comparator foods, compounds that are thermo-labile and will be digested during cooking, and/or compounds that are expected to be digested to innocuous compounds following ingestion. […] For Category 3 substances a final consideration in the safety assessment process may involve hazard characterization of the potential for a substance to produce toxic biological effects outside of the endpoints measured in a sub-chronic rat toxicity study. […]

[2] = Maximum estimated dietary exposure to media ingredients per 100 g serving; conditions: assumption of complete transfer of media components to the finished product on a wt/wt basis

B1: Bovine Transferrin: iron carrier of cell culture media (protein, UniProt Q29443 20-704, looked up)
Serotransferrin: DPERTVRWCTISTHEANKCASFRENVLRILESGPFVSCVKKTSHMDCIKAISNNEADAVTLDGGLVYEAGLKPNNLKPVVAEFHGTKDNPQTHYYAVAVVKKDTDFKLNELRGKKSCHTGLGRSAGWNIPMAKLYKELPDPQESIQRAAANFFSASCVPCADQSSFPKLCQLCAGKGTDKCACSNHEPYFGYSGAFKCLMEGAGDVAFVKHSTVFDNLPNPEDRKNYELLCGDNTRKSVDDYQECYLAMVPSHAVVARTVGGKEDVIWELLNHAQEHFGKDKPDNFQLFQSPHGKDLLFKDSADGFLKIPSKMDFELYLGYEYVTALQNLRESKPPDSSKDECMVKWCAIGHQERTKCDRWSGFSGGAIECETAENTEECIAKIMKGEADAMSLDGGYLYIAGKCGLVPVLAENYKTEGESCKNTPEKGYLAVAVVKTSDANINWNNLKDKKSCHTAVDRTAGWNIPMGLLYSKINNCKFDEFFSAGCAPGSPRNSSLCALCIGSEKGTGKECVPNSNERYYGYTGAFRCLVEKGDVAFVKDQTVIQNTDGNNNEAWAKNLKKENFEVLCKDGTRKPVTDAENCHLARGPNHAVVSRKDKATCVEKILNKQQDDFGKSVTDCTSNFCLFQSNSKDLLFRDDTKCLASIAKKTYDSYLGDDYVRAMTNLRQCSTSKLLEACTFHKP
[1]
  Risk Assessment Category: 3
[2]
  Maximum Estimated Exposure per 100 g serving: 150 mg
